According to article PMC11880201:
Read-outs that look alike come from different tables or passages of the source.

How the values were obtained:
[1] = molecular target: T1, INSM1 ZF1-ZF5 (human, UniProt Q01101 257-497); assay: NMR titration
[2] = molecular target: INSM1 ZF3 (human, UniProt Q01101 346-396); assay: NMR titration
[3] = molecular target: T2, INSM1 ZF1;TEAD1-TEAD (human;human?, UniProt Q01101;P28347 257-292;28-104, |); assay: AUC
[4] = molecular target: T3, CTCF ZF3-ZF7 (human, UniProt P49711 317-467); assay: EMSA
T3 sequence: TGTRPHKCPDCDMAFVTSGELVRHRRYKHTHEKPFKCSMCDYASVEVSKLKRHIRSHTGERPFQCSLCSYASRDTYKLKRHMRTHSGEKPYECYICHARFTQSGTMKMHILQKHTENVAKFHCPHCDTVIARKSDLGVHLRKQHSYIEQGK

[5] = molecular target: T2, INSM1 ZF1;TEAD1-TEAD; assay: EMSA
[6] = molecular target: TEAD1-TEAD R75A (UniProt P28347 28-104, R75A); assay: EMSA
[7] = molecular target: TEAD1-TEAD L79A (UniProt P28347 28-104, L79A); assay: EMSA
[8] = molecular target: T1, INSM1 ZF1-ZF5; assay: EMSA
[9] = molecular target: TEAD1-TEAD R80A (UniProt P28347 28-104, R80A); assay: EMSA
[10] = molecular target: TEAD1-TEAD (UniProt P28347 28-104); assay: EMSA
[11] = molecular target: T1, INSM1 ZF1-ZF5; assay: EMSA; remark: listed apart in the source

T1 sequence (Q01101 257-497): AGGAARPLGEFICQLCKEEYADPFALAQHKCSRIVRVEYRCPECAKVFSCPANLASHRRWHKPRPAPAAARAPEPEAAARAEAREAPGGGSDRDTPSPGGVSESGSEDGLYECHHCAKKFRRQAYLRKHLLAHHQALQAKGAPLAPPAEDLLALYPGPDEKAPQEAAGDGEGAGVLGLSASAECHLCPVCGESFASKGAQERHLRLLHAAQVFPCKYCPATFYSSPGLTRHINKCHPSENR
T2 sequence (Q01101 257-292, chain 1 of 2): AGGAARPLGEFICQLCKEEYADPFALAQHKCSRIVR
T2 sequence (P28347 28-104, chain 2 of 2): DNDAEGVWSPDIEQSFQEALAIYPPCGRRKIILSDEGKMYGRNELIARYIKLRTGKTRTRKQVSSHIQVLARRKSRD
Sequence of TEAD1-TEAD R75A (P28347 28-104 R75A): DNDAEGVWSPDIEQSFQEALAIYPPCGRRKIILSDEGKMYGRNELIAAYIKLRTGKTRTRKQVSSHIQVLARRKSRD
Sequence of TEAD1-TEAD (P28347 28-104): as the sequence (P28347 28-104, chain 2 of 2) above
Sequence of TEAD1-TEAD L79A (P28347 28-104 L79A): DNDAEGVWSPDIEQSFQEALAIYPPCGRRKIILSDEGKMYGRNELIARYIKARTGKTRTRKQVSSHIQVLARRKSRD
Sequence of INSM1 ZF3 (Q01101 346-396): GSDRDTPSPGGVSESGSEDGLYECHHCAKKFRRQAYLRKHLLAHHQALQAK
Sequence of TEAD1-TEAD R80A (P28347 28-104 R80A): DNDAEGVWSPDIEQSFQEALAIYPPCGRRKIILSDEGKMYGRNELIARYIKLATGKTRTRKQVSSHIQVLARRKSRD

B1: M2 (unlabeled) (dsDNA)
DNA 1: TACCACCAGGGGGCAGT
DNA 2: ACTGCCCCCTGGTGGTA
B1: binds [1]; binds [2].

B2: MCAT (unlabeled) (dsDNA)
DNA 1: AGTGGAATGTGC
DNA 2: GCACATTCCACT
B2: binds [3].

B3: M2 (FAM) (dsDNA)
DNA 1: TACCACCAGGGGGCAGT
DNA 2: ACTGCCCCCTGGTGGTA
B3 was tested, and the Kd [4] was 0.0984 µM.

B4: MCAT (FAM) (dsDNA)
DNA 1: AGTGGAATGTGC
DNA 2: GCACATTCCACT
B4: binds [5]; binds [6]; binds [7]. The Kd [8] was 8.24 µM, the binding result [9] was “binds” and the Kd [10] was roughly 0.09 µM.

B5: M1 (dsDNA)
DNA 1: TGTCAGGGGGCA
DNA 2: TGCCCCCTGACA
For B5, the Kd [11] was 6 µM.
